{"source": "patent US12479928B2", "about": "“Anti-cancer peptide” (Minerva Biotechnologies Corporation, priority 2014, dated 2025)", "molecules": {"B1": {"name": "NME7-AB: recombinant human NME7 devoid of the DM10 domain, NDPK A and B domains, about 33 kDa monomer (protein)", "chain": "MEKTLALIKPDAISKAGEIIEIINKAGFTITKLKMMMLSRKEALDFHVDHQSRPFFNELIQFITTGPIIAMEILRDDAICEWKRLLGPANSGVARTDASESIRALFGTDGIRNAAHGPDSFASAAREMELFFPSSGGCGPANTAKFTNCTCCIVKPHAVSEGLLGKILMAIRDAGFEISAMQMFNMDRVNVEEFYEVYKGVVTEYHDMVTEMYSGPCVAMEIQQNNATKTFREFCGPADPEIARHLRPGTLRAIFGKTKIQNAVHCTDLPEDGLLEVQYFFKILDN"}}, "key": {"[1]": {"tested_on": "T47D human breast cancer cells xenografted", "assay": "Xenograft of NME7-AB cultured floater cells in nu/nu mice with daily NME7-AB injection", "format": "in vivo, female nu/nu athymic mice", "experimental": "The freshly harvested floater metastatic cells were xenografted into the flank of female nu/nu athymic mice that have been implanted with 90-day slow release estrogen pellets. Floater cells were xenografted with 10,000, 1,000, 100 or 50 cells each. Half of the mice in each group of 6 were also injected daily with 32 nM NME7-AB near the original implantation site. The parent T47D cells that were cultured in RPMI media without NME7-AB were also implanted into mice at 6 million, 10,000 or 100 as controls. Mice implanted with the NME7-induced floater cells developed tumors even when as few as 50 cells were implanted. Mice that were implanted with the floater cells and that received daily injections of NME7-AB also developed remote tumors or remote metastases in various organs (FIG. 20-25). 11 out of the 12 mice, or 92%, that were injected with human NME7-AB after implantation of the NME7-AB cultured cancer cells developed tumors at the injection site. Only 7 out of the 12 mice, or 58%, that were not injected with human NME7-AB after implantation developed tumors. […] None of the mice that were not injected with NME7-AB developed multiple, visible tumors.\nThe freshly harvested floater metastatic cells are xenografted into the flank of female nu/nu athymic mice that have been implanted with 90-day slow release estrogen pellets. Floater cells were xenografted as 10,000, 1,000, 100 or 50 cells each. Half of the mice in each group of 6 were also injected daily with 32 nM NME7-AB near the original implantation site. The parent T47D cells that were cultured in RPMI media without NME7-AB were also implanted into mice as 6 million, 10,000 or 100 as controls. Mice implanted with the NME7-induced floater cells developed tumors even when as few as 50 cells were implanted. Mice that were implanted with the floater cells and that received daily injections of NME7-AB also developed remote tumors or remote metastases in various organs (FIG. 20-25). 11 out of the 12 mice, or 92%, that were injected with human NME7-AB after implantation of the NME7-AB cultured cancer cells, developed tumors at the injection site. Only 7 out of the 12 mice, or 58%, that were not injected with human NME7-AB after implantation developed tumors. 9 out of the 11 mice, or 82%, that got tumors and were injected with human NME7-AB developed multiple tumors remote from the injection site. None of the mice that were not injected with NME7-AB developed multiple, visible tumors."}, "T47D breast cancer cells": {"tested_on": "T47D breast cancer cells", "assay": "Induced transition of breast cancer cells to a more metastatic state, RT-PCR of metastatic markers", "format": "cell-based, human", "experimental": "In one particular experiment, T47D human breast cancer cells were cultured in standard RPMI media for 14 days with media changes every 48 hours and passed by trypsinization when approximately 75% confluent. The cells were then plated into 6-well plates and cultured in minimal stem cell media (see Example 1) that was supplemented with 4 nM NME7-AB. Media was changed every 48 hours. By about Day 4, some cells become detached from the surface and float. Media is carefully changed so as to retain the “floaters” as these are the cells that have the highest metastatic potential as evidence by RT-PCR measurement of metastatic markers. On Day 7 or 8, the floaters are harvested and counted. Samples are retained for RT-PCR measurement.\nWe have shown that NME7-AB promotes cancerous growth and causes cancer cells to accelerate to the highly metastatic cancer stem cell (CSC) state also called tumor initiating cells (TIC). Therefore, we conclude that NME7-X1 and an NME7 cleavage product that removes the DM10 domain also promote cancerous growth and causes cancer cells to accelerate to the highly metastatic cancer stem cell (CSC) state also called tumor initiating cells (TIC). In one example, NME7-AB was added to cancer cells in a serum-free media and in the absence of any other growth factors or cytokines. […] After 10 days cells were collected and analyzed by RT-PCR for expression of molecular markers of CSCs which were elevated by 10-200-times (FIGS. 11, 12). […]\nA rho I kinase inhibitor, ROCi, ROCKi or Ri, was added to prevent the transformed cells from floating off the plate. Expression levels of various metastatic markers as well as pluripotent stem cell markers were measured for the parent cells and for the NME7-AB cultured cells.\nT47D human breast cancer cells were cultured in standard RPMI media for 14 days with media changes every 48 hours and passed by trypsinization when approximately 75% confluent. […] On Day 7 or 8, the floaters are harvested and counted. […]"}, "[2]": {"tested_on": "MDA-MB breast cancer cell line", "assay": "RT-PCR of metastatic markers after culture in NME7-AB, MDA-MB", "format": "cell-based, human", "conditions": "serum-free media containing NME7-AB", "experimental": "FIGS. 37A-37C show graphs of RT-PCR measurements of metastatic markers in cancer cells after being cultured in a serum-free media containing NME7-AB compared to the standard media.\n(§1) Ovarian cancer cells, pancreatic cancer cells and melanoma cells were also cultured in NME7-AB and were transformed to a more metastatic state after as few as 3 days in culture."}, "[3]": {"tested_on": "DU145 prostate cancer cells", "assay": "RT-PCR of CSC markers after culture in NME7-AB, DU145", "format": "cell-based, human", "experimental": "FIG. 13 is a graph of RT-PCR measurements of gene expression for a variety of stem and putative cancer stem cell markers for DU145 prostate cancer cells. Cells were cultured either in traditional media or a media containing NME1 dimers (“NM23”) or NME7 (NME7-AB). Rho kinase inhibitor was not used because by passage 2, cells remained adherent.\nas §1"}}, "note": "Where “and” joins values, the source holds several entries; their conditions need not be identical. Equal entries are not always repeated.", "data": [{"molecule": "B1", "values": [{"measurement": "number of implanted NME7-induced floater cells that developed tumors", "setting": "[1]; cells pre-cultured in NME7-AB", "result": "≤ 50", "unit": "cells"}, {"measurement": "mice that developed tumors at the injection site", "setting": "[1]; injected daily with 32 nM NME7-AB, 11 out of 12 mice", "result": 92, "unit": "%"}, {"measurement": "mice that developed multiple tumors remote from the injection site", "setting": "[1]; injected daily with NME7-AB, 9 out of 11 mice with tumors", "result": "82% and 80%"}, {"measurement": "engraftment rate of cancer cells cultured in NME7-AB", "setting": "[1]; xenografted into test animals", "result": "over 90%"}, {"measurement": "CXCR4 up-regulation", "setting": "T47D breast cancer cells; 4 nM NME7-AB in minimal stem cell media, floaters Day 7 or 8", "result": "40-200 times"}, {"measurement": "elevation of molecular markers of CSCs", "setting": "T47D breast cancer cells; 16 nM NME7-AB, after 10 days", "result": "10-200 times"}, {"measurement": "increase in expression of molecular markers such as CXCR4", "setting": "T47D breast cancer cells; serum-free media, within 7-10 days", "result": "more than 100 fold"}, {"measurement": "metastatic marker expression after culture in NME7-AB", "setting": "[2]", "result": "increased expression of metastatic markers CDH1 aka E-cadherin and SOX2"}, {"measurement": "CSC marker expression after culture in NME7-AB", "setting": "[3]", "result": "dramatic increases in expression of CSC markers"}]}]}
